Consider 2 molecules from patent US7030231 (University of California, dated 2006).

Data set [1] concerns the target T1, His-tagged MT-SP1 protease domain (refolded, autoactivated, purified on p-aminobenzamidine resin) (human, UniProt Q9Y5Y6 615-855).
T1 construct: The split 596-614 / 615-855 follows from the stated construct limits and the stated cleavage site; also called His-MT-SP1 protease domain; MT-SP1 His-tagged protease domain
T1 sequence 1: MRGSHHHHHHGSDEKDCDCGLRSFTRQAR
T1 sequence 2: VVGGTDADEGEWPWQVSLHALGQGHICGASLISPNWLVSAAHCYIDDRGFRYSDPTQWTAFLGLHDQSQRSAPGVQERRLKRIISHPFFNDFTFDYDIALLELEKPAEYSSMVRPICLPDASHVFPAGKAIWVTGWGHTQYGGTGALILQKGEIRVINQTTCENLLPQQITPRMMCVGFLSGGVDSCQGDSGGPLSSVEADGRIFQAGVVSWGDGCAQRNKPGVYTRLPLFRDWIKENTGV
Description: apparent Ki; inhibition of Spectrozyme tPA hydrolysis by 63 pM enzyme, fit to the tight-binding reversible inhibitor equation. As for the experimental part:
Ecotin and ecotin M84R/M85R were purified from *E. coli* as described in copending application Ser. Nos. 09/290,513 and 09/289,830, both filed on Apr. 12, 1999. Various concentrations of ecotin or ecotin M84R/M85R were incubated with the His-tagged serine protease domain in a total volume of 990 μL of buffer containing 50 mM NaCl, 50 mM Tris-HCl (pH 8.8), 0.01% Tween 20. 10 μL of Spectrozyme tPA was added, yielding a solution containing 100 μM substrate. The final enzyme concentration was 63 pM, and the ecotin and ecotin M84R/M85R concentration ranged from 0.1 nM to 50 nM. The data were fit to the equation derived for kinetics of reversible tight-binding inhibitors (Morrison (1969) *Biochim. Biophys. Acta* 185: 269–286, Williams and Morrison (1979) *Methods. Enzymol.* 63: 437–467), and the values for apparent K_i were determined.
The enzyme concentration was determined using an active site titration with MUGB. The catalytic activity of the protease domain was monitored using pNA substrates. Purified protease domain was tested for hydrolytic activity against tetrapeptide substrates of the form Suc-AAPX-pNA, which contained various amino acids at the P1 position (P1-Ala, Asp, Glu, Phe, Leu, Met, Lys, or Arg). The only substrates with detectable activity were those with P1-Lys or P1-Arg. The serine protease domain with the Ser^805Ala mutation had no detectable activity. […]

Data set [2] has as its target T2, inactive Ser805Ala His-tagged MT-SP1 protease domain.
T2 chain: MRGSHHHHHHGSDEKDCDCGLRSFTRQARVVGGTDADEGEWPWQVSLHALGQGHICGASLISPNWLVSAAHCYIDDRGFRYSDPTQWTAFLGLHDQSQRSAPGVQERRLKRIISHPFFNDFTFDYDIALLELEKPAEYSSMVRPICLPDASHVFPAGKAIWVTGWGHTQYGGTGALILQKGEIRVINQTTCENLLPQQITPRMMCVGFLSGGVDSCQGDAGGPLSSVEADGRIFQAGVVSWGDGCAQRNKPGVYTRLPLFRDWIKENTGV

B1: ecotin M84R/M85R (other, E. coli (purified from E. coli), UniProt P23827 21-162, looked up)
chain: AESVQPLEKIAPYPQAEKGMKRQVIQLTPQEDESTLKVELLIGQTLEVDCNLHRLGGKLENKTLEGWGYDYYVFDKVSSPVSTRRACPDGKKEKKFVTAYLGDAGMLRYNSKLPIVVYTPDNVDVKYRVWKAEEKIDNAVVR
notes: They probably count on mature ecotin, not on the precursor with its signal peptide
Consider B1, for which the Ki in data set [1] was determined as 9.8 pM.

B2: His-tagged MT-SP1 protease domain (refolded, autoactivated, purified on p-aminobenzamidine resin) (protein)
chain 1: MRGSHHHHHHGSDEKDCDCGLRSFTRQAR
chain 2: T1 sequence 2
Regarding B2, the “cleavage monitored by SDS-PAGE” value in data set [2] is recorded as “This treatment results in the formation of a cleavage product that corresponds to the size of the active protease”.
